PMC6588604

Target: NLuc-GhBOP1 (Gossypium hirsutum)

GUS staining intensity from GhPR1pro:GUS in tobacco leaves: 35S:GhTGA3 + 35S:GhBOP1 + reporter against 35S:GhTGA3 + reporter: 2 fold
Substance: CLuc-GhTGA3 (natural protein)
